Measurements as given in patent US10729634B2, “Sex hormone-binding globulin for use as a medicament” (FUNDACIÓ HOSPITAL UNIVERSITARI VALL D'HEBRON—INSTITUT DE …, priority 2013, dated 2020).

Tests used:
[1] = tested on: HepG2 hepatoblastoma cells; test: Lipolysis assay (glycerol release) in HepG2 cells; type: cell-based, human; details: SHBG 2.5 nM, 10 nM and 50 nM, 16h incubation, vs vehicle control
Description: Cell culture experiments. Cell culture reagents were from Life Technologies Inc (Invitrogen SA). HepG2 hepatoblastoma cells (catalog no. HB-8065; ATCC) were maintained in DMEM supplemented with 10% foetal bovine serum (FBS) and antibiotics. For experiments, HepG2 cells were cultured to 60%-80% confluence, cells were washed and incubated with Lipolysis Assay Buffer containing vehicle (control—C), Isoproterenol (positive control—ISO, 3 μM) or SHBG at different final cell culture concentrations (2.5 nM, 10 nM and 50 nM). SHBG was from native human protein purified from healthy human serums (it included the amino acid sequence SEQ ID NO: 1). After 16h incubation, media was collected and glycerol concentration was assessed using a Glycerol Detection Kit (Zenbio).
The data are depicted in FIG. 1, wherein the bars indicate the levels of glycerol (Gly) for each assayed sample. Glycerol is a direct measure of the lipolysis level, since is the product obtained when triglycerides are decomposed chemically or enzymatically to glycerol and fatty acids.

[2] = tested on: human mature adipocytes from obese subjects; test: Lipolysis assay (glycerol release) in human mature adipocytes; type: cell-based; details: SHBG 10 nM and 30 nM, 16h incubation, vs control buffer
Description: A similar in vitro experiment as in Example 1 was performed but using human mature adipocytes from obese subjects instead of the HepG2 cells.
The cells were maintained in DMEM supplemented with 10% foetal bovine serum (FBS) and antibiotics, cultured to confluence, washed and incubated with Lipolysis Assay Buffer containing vehicle (control—C), Isoproterenol (positive control—ISO, 3 μM) or SHBG at different final cell culture concentrations (10 nM and 30 nM). SHBG was from native human protein purified from healthy human serums (it included the amino acid sequence SEQ ID NO: 1). After 16h incubation, media was collected and glycerol concentration was assessed using a Glycerol Detection Kit (Zenbio).

[3] = tested on: shbg-db/db transgenic mice; test: Obese diabetic db/db mice expressing human SHBG (shbg-db/db) compared with db/db; type: in vivo
Text: To shed light to this issue, the inventors developed a unique mouse model that expresses the human SHBG gene and develops obesity, by crossing the human SHBG transgenic mice with the db/db mice.
The human SHBG transgenic mice is the one disclosed by Jänne et al, “Human Sex-Hormone-Binding Globulin Gen Expression in Transgenic Mice”, Molecular Endocrinology—1998, Vol. No. 12 (1), pp: 123-136.
Briefly, these mice were obtained by microinjecting into the pronuclei of a one-cell mouse embryos, a 4.3 kb portion of a human shbg that comprises the 8 exons of the SHBG plus 0.9 kb 5′ of the translation initiation codon in exon 1 and 0.5 kb 3′ from the polyadenylation sequence in exon 8. The one-cell embryos were obtained superovulating CBA×C57BL6 hybrid females with pregnant mare serum and hCG (Sigma Chemical Co. Mississauga, Canada) and mating them with CBA×C57BL6 males. Female CD-1 mice were used to produce pseudopregnant recipients by mating with vasectomized CD-1 males. Injected embryos were implanted into the pseudopregnant recipient mice using a standard protocol. This human transgenic mice over expresses the human shbg gene in vivo. According to Northern blot analysis, the human shbg transcripts are most abundant in liver and kidney. At the cellular level, the human shbg transgenes are expressed in clusters of hepatocytes located mainly within the periportal region of hepatic lobules and in the epithelial cells lining the proximal convoluted tubules of the kidney.
The db/db mice corresponds to the JAX™ Mice Strain: Diabetic Mice db/db (from Charles River; www.criver.com/en-US/Pages/home.aspx). These mice are characterized by having a point mutation in the leptin receptor. In homozygosis the lack of leptin signaling in the hypothalamus will lead to persistent hyperphagia, obesity, type 2 diabetes, dyslipidaemia and fatty liver. In this mice, diabetes (db), which occurred in an inbred strain of mouse, is inherited as a unit autosomal recessive and is characterized by a metabolic disturbance resembling diabetes mellitus in man. Abnormal deposition of fat at 3 to 4 weeks of age is followed shortly by hyperglycemia, polyuria, and glycosuria.
For performing the assays, mice were maintained under standard conditions with food (Global Diet 2018, Harlan Interfauna Iberica, Barcelona, Spain) and water provided ad libitum and a 12 h light/dark cycle. Experimental procedures were approved by the Institutional Animal Use Subcommittees of Hospital Vall d'Hebron Research Institute and the Universitat Autònoma Barcelona.
The mice for experiments in next illustrated assays were of the following four genotypes: • db/+, which means lean mice heterozygous at point mutation in the leptin receptor. • db/db, which means that the mice were homozygous for the point mutation in the leptin receptor and behave a phenotype of persistent hyperphagia, obesity, type 2 diabetes, dyslipidaemia and fatty liver, • shbg-db/+ lean mice heterozygous at point mutation in the leptin receptor and expressing the shbggene • shbg-db/db, which means that the they over-expressed shbg gene in the manner disclosed above and at the same time they had the phenotype of the homozygous db/db mice in relation to hyperphagia, obesity, type 2 diabetes, dyslipidaemia and fatty liver.
Histology and Immunohistochemistry: For morphological studies, 3 animals of each genotype (db/+, db/db, shbg4-db/+ and shbg4-db/db) were used. Livers and adipose tissue were fixed in 4% paraformaldehyde for 24 h and embedded in paraffin. Serial 5-μm thick sections were used for histological examination and stained with hematoxylin-eosin (H&E).
For immunohistochemistry studies, the paraffin sections were de-waxed and incubated at high power in a microwave oven for 10 min in citrate buffer, pH 6.6. The sections were then cooled at room temperature for 20 min and treated with a 0.03% hydrogen peroxide solution for 7 min, prior to incubation (overnight at 4° C.) with rabbit antibodies against F4/80. […]

[4] = tested on: human SHBG transgenic mice (shbg); test: High lipid diet in human SHBG transgenic mice vs wild-type; type: in vivo; details: shbg vs WT mice
Description: Wild-type (WT) mice and shbg-mice as in Example 5 were fed with a high lipid diet (50% lipids, from which 46% pig butter and 4% soybean fat) for 8 weeks.
Weight increase along weeks was followed and plotted in FIG. 19 (A), wherein the weight in grams of mice is plotted per week after consumption of the fat diet.
Once mice were sacrificed, visceral adipose tissue (VAT in grams) was analyzed in both animal types. […] VAT was determined as follows: all visceral fat was removed from the animals and it was weighed in a precision balance.

[5] = adipose tissue, shbg-db/db vs db/db mice
[6] = shbg-db/db vs db/db mice, 4 to 12 weeks of age
[7] = shbg-db/db vs db/db mice, relative to 18S mRNA
[8] = shbg-db/db vs db/db mice, sacrificed at 6 weeks
[9] = shbg-db/db vs db/db mice, western blot

B1: SHBG: native human protein purified from healthy human serums (included SEQ ID NO: 1); in mice and HepG2 expressed from human shbg transgene/vector (protein, listed as Homo sapiens)
chain: MESRGPLATSRLLLLLLLLLLRHTRQGWALRPVLPTQSAHDPPAVHLSNGPGQEPIAVMTFDLTKITKTSSSFEVRTWDPEGVIFYGDTNPKDDWFMLGLRDGRPEIQLHNHWAQLTVGAGPRLDDGRWHQVEVKMEGDSVLLEVDGEEVLRLRQVSGPLTSKRHPIMRIALGGLLFPASNLRLPLVPALDGCLRRDSWLDKQAEISASAPTSLRSCDVESNPGIFLPPGTQAEFNLRDIPQPHAEPWAFSLDLGLKQAAGSGHLLALGTPENPSWLSLHLQDQKVVLSSGSGPGLDLPLVLGLPLQLKLSMSRVVLSQGSKMKALALPPLGLAPLLNLWAKPQGRLFLGALPGEDSSTSFCLNGLWAQGQRLDVDQALNRSHEIWTHSCPQSPGNGTDASH
With B1 the “lipolysis (glycerol concentration in medium)” value [1] was “increased the lipolysis in HepG2 cells (in a dose-dependent manner)”, the “final glycerol concentration (lipolysis)” value [2] was “greater than the observed in the non-treated mature adipocytes” and the “Adiponectin mRNA levels” value [3, 5] was “increased significantly”. The “IL6 mRNA levels” value [3, 5] was “reduced in shbg-db/db mice when compared with db/db mice but it was not statistically significant”, the “IL-1β mRNA levels” value [3, 5] was “significantly reduced” and the “TNF-α mRNA levels” value [3, 5] was “significantly reduced”. For the same molecule, the “Triglyceride amounts in liver” value ([3]; genotype shbg-db/+ (lean mice expressing human SHBG), db/+ control 74.99 ± 4.17) was 88.88 ± 12.84 Nmol TGs/tissue g, the “Triglyceride amounts in liver” value ([3]; genotype shbg-db/db (obese mice expressing human SHBG), db/db control 421.92 ± 58.6) was 314.64 ± 41.37 Nmol TGs/tissue g and the “macrophage infiltration (F4/80 immunohistochemistry)” value ([3]; liver and adipose tissue, shbg-db/db vs db/db mice) was “less macrophage infiltration in both liver and adipose tissue”. For the same molecule, the hepatic lipogenesis ([3]; shbg-db/db vs db/db mice) was “Reducing Hepatic Lipogenesis”, the inflammation ([3]; shbg-db/db vs db/db mice) was “Lowers Inflammation” and the blood glucose levels [3, 6] was “not Blood Glucose Levels”. The “weight gain (body weight)” value [3, 6] was “Reduces Weight Gain”, the hepatic steatosis ([3]; shbg-db/db vs db/db mice, liver histology) was “Reduces” and the “liver ACC mRNA levels” value [3, 7] was “significantly lower”. The “liver FAS mRNA levels” value [3, 7] was “significantly lower”, the adipocyte size [3, 8] was “Reduces” and the “adipose tissue weight (VAT)” value [3, 8] was “Reduces Adipose Tissue Weight”. The liver weight [3, 8] was “Reduces Liver Weight”, the “liver ACC protein levels” value [3, 9] was “reduced ACC protein levels” and the “liver FAS protein levels” value [3, 9] was “significantly lower FAS protein levels”. For the same molecule, the “visceral adipose tissue (VAT)” value ([4]; high lipid diet (50% lipids) for 8 weeks) was “wild-type mice had a greater visceral adipose tissue than transgenic animals”, the “body weight along weeks” value ([4]; high lipid diet (50% lipids)) was “always a lower weight than wild-type mice” and the obesity ([4]; high lipid diet (50% lipids)) was “Protects Against Obesity”.
